Target: HA-tagged MARK2, baculovirus-expressed in Sf9 cells (Rattus norvegicus (Rat), UniProt O08679 1-722)
Assay: cell-based or functional assay

Sequence of HA-tagged MARK2, baculovirus-expressed in Sf9 cells (O08679 other isoform, or with tags, fused parts or gaps limits assumed, form in doubt): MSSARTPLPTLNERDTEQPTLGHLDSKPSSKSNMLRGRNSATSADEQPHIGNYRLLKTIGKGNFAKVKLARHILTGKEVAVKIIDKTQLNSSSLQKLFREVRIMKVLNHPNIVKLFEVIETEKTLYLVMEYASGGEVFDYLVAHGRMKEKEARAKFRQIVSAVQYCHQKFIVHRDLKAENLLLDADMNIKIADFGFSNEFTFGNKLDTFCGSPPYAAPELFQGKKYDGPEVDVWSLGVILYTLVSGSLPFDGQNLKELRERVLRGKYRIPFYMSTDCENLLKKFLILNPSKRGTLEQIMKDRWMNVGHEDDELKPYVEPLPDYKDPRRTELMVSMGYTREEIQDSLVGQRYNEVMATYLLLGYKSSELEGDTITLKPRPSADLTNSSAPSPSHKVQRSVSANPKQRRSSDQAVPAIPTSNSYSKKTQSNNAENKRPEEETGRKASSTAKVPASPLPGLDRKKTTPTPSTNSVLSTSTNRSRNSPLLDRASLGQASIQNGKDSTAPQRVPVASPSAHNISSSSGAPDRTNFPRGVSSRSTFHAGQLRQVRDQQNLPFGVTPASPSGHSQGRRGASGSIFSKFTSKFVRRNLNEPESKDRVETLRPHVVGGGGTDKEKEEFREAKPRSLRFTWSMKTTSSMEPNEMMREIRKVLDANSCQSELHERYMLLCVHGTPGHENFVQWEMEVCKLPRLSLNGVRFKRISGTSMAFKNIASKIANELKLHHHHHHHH

B1: myc-tagged MARKK, baculovirus-expressed in Sf9 cells (enzyme, not shown: small tags and cut ends)
chain: MGHHHHHHHHHHSSGHIEGRHMPSTNRAGSLKDPEIAELFFKEDPEKLFTDLREIGHGSFGAVYFARDVRTNEVVAIKKMSYSGKQSTEKWQDIIKEVKFLQRIKHPNSIEYKGCYLREHTAWLVMEYCLGSASDLLEVHKKPLQEVEIAAITHGALQGLAYLHSHTMIHRDIKAGNILLTEPGQVKLADFGSASMASPANSFVGTPYWMAPEVILAMDEGQYDGKVDVWSLGITCIELAERKPPLFNMNAMSALYHIAQNESPTLQSNEWSDYFRNFVDSCLQKIPQDRPTSEELLKHMFVLRERPETVLIDLIQRTKDAVRELDNLQYRKMKKLLFQEAHNGPAVEAQEEEEEQDHGGGRTGTVNSVGSNQSIPSMSISASSQSSSVNSLPDASDDKSELDMMEGDHTVMSNSSVIHLKPEEENYQEEGDPRTRASDPQSPPQVSRHKSHYRNREHFATIRTASLVTRQMQEHEQDSELREQMSGYKRMRRQHQKQLMTLENKLKAEMDEHRLRLDKDLETQRNNFAAEMEKLIKKHQASMEKEAKVMANEEKKFQQHIQAQQKKELNSFLESQKREYKLRKEQLKEELNENQSTPKKEKQEWLSKQKENIQHFQAEEEANLLRRQRQYLELECRRFKRRMLLGRHNLEQDLVREELNKRQTQKDLEHAMLLRQHESMQELEFRHLNTIQKMRCELIRLQHQTELTNQLEYNKRRERELRRKHVMEVRQQPKSLKSKELQIKKQFQDTCKIQTRQYKALRNHLLETTPKSEHKAVLKRLKEEQTRKLAILAEQYDHSINEMLSTQALRLDEAQEAECQVLKMQLQQELELLNAYQSKIKMQAEAQHDRELRELEQRVSLRRALLEQKIEEEMLALQNERTERIRSLLERQAREIEAFDSESMRLGFSNMVLSNLSPEAFSHSYPGASSWSHNPTGGSGPHWGHPMGGTPQAWGHPMQGGPQPWGHPSGPMQGVPRGSSIGVRNSPQALRRTASGGRTEQGMSRSTSVTSQISNGSHMSYT
- activity of immunoprecipitated MARK2 (phosphorylation of TR1) on co-expression in Sf9 cells: ~3 fold
